Test results from patent publication US7767415B2, “Compositions and methods for modifying blood cell carbohydrates” (Velico Medical, Inc., priority 2001, dated 2010).
Read-outs that look alike come from different tables or passages of the source.

Legend:
[1] = tested on: Recombinant chicken liver α-N-acetylgalactosaminidase; conditions: apparent; pH 3.65, 37° C.; Zhu et al. 1996; cited from earlier work
[2] = tested on: R. torgues (Ruminococcus torques) α-N-acetylgalactosaminidase, isolated to apparent homogeneity; conditions: Hoskins et al. 1997; cited from earlier work
[3] = tested on: E. coli expressed recombinant α-N-acetylgalactosaminidase (New England BioLabs, catalog no. P0734B, proprietary strain); test: Apparent Km and Vmax with monosaccharide derivative (p-nitrophenol at 405 nm, Lineweaver-Burk), Table XI; assay type: biochemical; conditions: pH 7.0, 37° C.
Procedure: Commercial Recombinant α-N-Acetylgalactosaminidase (New England Biolabs): • vii) 0.5 mM as a starting concentration of αGalNAc p-nitrophenyl monosaccharide derivative in a tube containing 0.05 M Sodium phosphate buffer pH 7.0 was sequentially diluted 2 fold by mixing it with an equal volume of buffer. […] of enzyme was added to each tube and incubated for 10 min at 37° C. The reaction was quenched by adding an equal volume of 0.2 M sodium borate buffer (pH 9.8). The amount of the liberated p-nitrophenol was determined by measuring the absorbance at 405 nm.

[4] = tested on: E. coli expressed recombinant α-N-acetylgalactosaminidase (New England BioLabs, catalog no. P0734B, proprietary strain); test: Preliminary Km with tetrasaccharide AMC substrate (densitometric scans of substrate/product ratio); assay type: biochemical; conditions: assay unreliable at low concentrations, Km possibly even lower than 20 μM, read-out: Km for the blood group A oligosaccharide substrates
Source text: (§1) The assay used for this determination involved densitometric scans of the substrate/product ratio using the tetrasaccharide AMC substrate (GalNAcα1-3(Fucα1-2)Galβ1-4GalNAc-AMC).

[5] = tested on: Recombinant coffee bean (Coffea canephora) α-galactosidase; conditions: apparent; pH 5.5, 26° C.; Zhu et al. 1995; cited from earlier work
[6] = Dean and Sweeley 1979; cited from earlier work
[7] = Activity with blood group A tetrasaccharide AMC substrate (HPTLC); assay type: biochemical; conditions: for difference of specific activity, GalNAcα1-pNP versus A tetrasaccharide substrate: pH 3.65; for Specific activity with blood group A tetrasaccharide-AMC: pH 5.5
[8] = as above; assay type: biochemical
Procedure: FIG. 10 illustrates the activity of E. coli expressed α-N-acetylgalactosaminidase with the blood group A tetrasaccharide AMC substrate at different pH. Assays were performed in reactions of 10 μl containing 1 nmole of α-tetra, 0.05 μg enzyme, and the buffer Na Citrate-NaPO4 at varying pH 2.6-8.0. Reactions were incubated 40 min at 26° C., and 3 μl samples analyzed by HPTLC. Panel A: HPTLC analysis; Panel B: Substrate cleavage quantified by scanning and plotted against pH.
Assays with Derivatized oligosaccharide substrates (AMC, OGr) were performed by the following procedure: • iii) One (AMC) or 5 (OGr) nmol substrate in reaction mixtures of a total volume of 10 μl containing 50 mM sodium citrate (pH 6.0) was incubated at 26° C. Aliquots of 2.5-3.0 μl were taken at different time points (0′, 15′, 30′, 60′) to follow product development. Product development was analyzed by HPTLC in chloroform-methanol-water (vol/vol/vol: 60/35/8) and visualized by UV or orcinol staining. […]
as §1

[9] = Activity with repetitive A heptasaccharide AMC substrate (HPTLC); assay type: biochemical
Procedure: FIG. 5b is an HPTLC analysis of five selected Streptomycete α-N-acetylgalactosaminidase activities with the blood group A tetrasaccharide (Panel B-1) and A heptasaccharide AMC (Panel B-2) substrate. Streptomycete strains identified by numbers as in Table VII. […] Reactions were incubated 180 min at 30° C., and 2.5 μl of the reaction mixture was spotted onto HPTLC and developed in CHCl3:methanol:H2O (60:35:8) and photographed. Migration of trisaccharide (H), and tetrasaccharide (A), heptasaccharide and hexasaccharide (H-A) AMC derivatives is indicated by arrows. NE, no enzyme control; rCHl-Az, recombinant Chicken liver A-zyme; Origin, sample application position. The appearance of a disaccharide AMC is due to contaminating α-fucosidase activity.
Aliquots of 2.5-3.0 μl were taken at different time points (0′, 15′, 30′, 60′) to follow product development. Product development was analyzed by HPTLC in chloroform-methanol-water (vol/vol/vol: 60/35/8) and visualized by UV or orcinol staining.

[10] = tested on: A2 red blood cells; test: Enzymatic conversion of A2 red blood cells, hemagglutination typing; assay type: cell-based, human; conditions: A2 donors; chicken enzyme 100-200 U/ml, protocols A-C (pH 7.4 or 5.5, 30-37° C., 180 min to 4 hours)
Source text: (§2) It is evident from the data in Table XII that apparent removal of A antigens is achieved, when defined by one particular anti-blood group A specific monoclonal antibody that is not approved for blood typing procedures (DAKO). A large number of such antibodies exist and, due to specificity and low affinity binding, they are inappropriate for serological typing purposes. Development of monoclonal cocktails for ABO routine typing to substitute previously used polyclonal antibody reagents was a major achievement for the blood bank industry in 1990s. […] Details of the typing assay used in this example is as follows: • Approved typing reagents used in hemagglutination assays were murine monoclonal antibodies and plant lectins obtained from Ortho Clinical Diagnostics, Raritan, N.J.; Gamma Biologicals/Immucor, Norcross, Ga. Non-approved reagents included murine monoclonal anti-A antibody from Dako and a panel of monoclonal antibodies to blood group A variants produced by H. Clausen (Clausen et al., Proc. Natl. Acad. Sci. USA 82(4): 1199-203, 1985, Clausen et al., J Biol Chem. 261(3): 1380-7, 1986, Clausen et al., Biochemistry 25(22): 7075-85, 1986, Clausen et al., J Biol Chem. 262(29): 14228-34, 1987). Typing reagents were used according to the manufacturers recommendations and other monoclonal antibodies as determined by titrations. Hemagglutination Assay (Room Temperature) 1. […]

[11] = cited from earlier work; for Specific activity with GalNAcα1-pNP: pH 3.65 (optimal pH)
[12] = tested on: A1 red blood cells; test: Enzymatic conversion of A1 red blood cells, hemagglutination typing; assay type: cell-based, human; conditions: A1 donors; chicken enzyme 200 U/ml, 50% hematocrit, 37° C., 4 hours (protocols B, C)
Source text: as §2

[13] = listed as chicken α-N-acetylgalactosaminidase
[14] = listed as recombinant chicken α-N-acetylgalactosaminidase

## CC(=O)N[C@H]1[C@@H](Oc2ccc([N+](=O)[O-])cc2)O[C@H](CO)[C@H](O)[C@@H]1O [GalNAcα1-pNP, p-nitrophenyl-α-D-N-acetylgalactosaminopyranoside]
[1]
  Km: 827 µM
  Vmax: 60.9 U/mg^3
[2]
  Km: 2 to 8 mM
[3]
  Km: 10 to 50 µM
  Vmax: 3.3 U/mg^3

## GalNAcα1-3(Fucα1-2)Galβ1-4GalNAc-AMC
[4]
  Km: ~20 µM

## O=[N+]([O-])c1ccc(O[C@H]2O[C@H](CO)[C@H](O)[C@H](O)[C@H]2O)cc1 [Galα1-pNP, p-nitrophenyl α-galactoside]
[5]
  Km: 363 µM
  Vmax: 46.9 U/mg^1

B1: human α-N-acetylgalactosaminidase: human α-N-acetylgalactosaminidase (alpha-galactosidase B), isolated, cloned and expressed (protein, UniProt P17050 18-411, looked up)
Alpha-N-acetylgalactosaminidas …: LDNGLLQTPPMGWLAWERFRCNINCDEDPKNCISEQLFMEMADRMAQDGWRDMGYTYLNIDDCWIGGRDASGRLMPDPKRFPHGIPFLADYVHSLGLKLGIYADMGNFTCMGYPGTTLDKVVQDAQTFAEWKVDMLKLDGCFSTPEERAQGYPKMAAALNATGRPIAFSCSWPAYEGGLPPRVNYSLLADICNLWRNYDDIQDSWWSVLSILNWFVEHQDILQPVAGPGHWNDPDMLLIGNFGLSLEQSRAQMALWTVLAAPLLMSTDLRTISAQNMDILQNPLMIKINQDPLGIQGRRIHKEKSLIEVYMRPLSNKASALVFFSCRTDMPYRYHSSLGQLNFTGSVIYEAQDVYSGDIISGLRDETNFTVIINPSGVVMWYLYPIKNLEMSQQ
[6]
  pH optimum: 3.5

B2: Recombinant Chicken Liver α-N-acetylgalactosaminidase: Chicken liver α-N-acetylgalactosaminidase, recombinant, expressed in P. pastoris; prior-art enzyme for A cell conversion (protein, UniProt Q90744 1-405, looked up)
Alpha-N-acetylgalactosaminidas …: LENGLARTPPMGWLAWERFRCNVNCREDPRQCISEMLFMEMADRIAEDGWRELGYKYINIDDCWAAKQRDAEGRLVPDPERFPRGIKALADYVHARGLKLDIYGDLGRLTCGGYPGTTLDRVEQDAQTFAEWGVDMLKLDGCYSSGKEQAQGYPQMARALNSTGRPIVYSCSWPAYQGGLPPKVNYTLLGEICNLWRNYDDIQDSWDSVLSIVDWFFTNQDVLQPFAGPGHWNDPDMLIIGNFGLSYEQSRSQMALWTIMAAPLLMSTDLRTISPSAKKILQNRLMIQINQDPLGIQGRRIIKEGSHIEVFLRPLSQAASALVFFSRRTDMPFRYTTSLAKLGFPMGAAYEVQDVYSGKIISGLKTGDNFTVIINPSGVVMWYLCPKALLIQQQAPGGPSRLPLL
[7]; [13]
  difference of specific activity, GalNAcα1-pNP versus A tetrasaccharide substrate: over 100 fold
  Specific activity with blood group A tetrasaccharide-AMC: 0.2 U/mg
[7]; [14]
  difference of specific activity, GalNAcα1-pNP versus A tetrasaccharide substrate: 166 fold
  Specific activity with blood group A tetrasaccharide-AMC: 0.2 U/mg
[8]; not shown
  pH optimum with the blood group A tetrasaccharide AMC substrate: 3.5-4.5
[8]; pH 3.65
  Specific activity with blood group A tetrasaccharide-AMC: 0.5 U/mg
[8]; pH 3.65, listed as chicken α-N-acetylgalactosaminidase
  Specific activity with blood group A tetrasaccharide-AMC: 0.3 U/mg
[8]; pH 3.65, listed as recombinant chicken α-N-acetylgalactosaminidase
  Specific activity with blood group A tetrasaccharide-AMC: 0.3 U/mg
[8]; pH 5.5
  Specific activity with blood group A tetrasaccharide-AMC: 0.4 U/mg
[8]; pH not stated
  specific activity with A type 2 tetrasaccharide AMC derivative (structure 3): approximately 0.3 U/mg
[9]; pH 3.65
  Specific activity with repetitive A heptasaccharide-AMC: 0.5 U/mg
[9]; pH 5.5
  Specific activity with repetitive A heptasaccharide-AMC: 0.4 U/mg
[9]; pH not stated
  specific activity with repetitive A type 3 AMC derivative (structure 6): approximately 0.3 U/mg
[10]
  Agglutination, Dolichos biflorus, post enzyme treatment: 0
[11]; literature values, pH not stated
  specific activity using p-nitrophenyl αGalNAc as substrate: 51-56 U/mg
[11]
  Specific activity with GalNAcα1-pNP: 50 U/mg^3
[11]; [13]
  Specific activity with GalNAcα1-pNP: approximately 50 U/mg
[11]; [14]
  Specific activity with GalNAcα1-pNP: approximately 50 U/mg
[12]
  Agglutination, Dolichos biflorus, post enzyme treatment: 0
